For assay [1], the target named is T1, recombinant human RANTES (huRANTES, Peprotech) (human, UniProt P13501 24-91).
T1 sequence: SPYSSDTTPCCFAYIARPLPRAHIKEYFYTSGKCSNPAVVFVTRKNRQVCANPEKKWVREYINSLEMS
In words: cell-based or functional assay.

The target of assay [2] is T2, native human RANTES produced by THP1 cells (human, UniProt P13501 24-91).
T2 sequence: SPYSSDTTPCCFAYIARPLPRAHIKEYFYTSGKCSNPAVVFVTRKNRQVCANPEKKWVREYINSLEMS
Put plainly: cell-based or functional assay.

The target of assay [3] is T1, recombinant human RANTES (huRANTES, …). In words: cell-based or functional assay. This is another data set of the same source.
In assay [4] the target is T3, huRANTES immobilized on glycosaminoglycan (biotin labeled heparin) (human, UniProt P13501 24-91).
T3 construct: also called huRANTES immobilized on GAG; huRANTES in the context of GAG
T3 sequence: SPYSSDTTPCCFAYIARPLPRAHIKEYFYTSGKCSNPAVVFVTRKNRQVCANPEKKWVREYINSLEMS
Put plainly: ELISA: biotin-heparin on streptavidin plate, huRANTES captured on the heparin, IgG detected with anti-human IgG Fc-HRP, OD450; antibody concentration not given.

B1: C8 antibody, IgG1 format (antibody, V domains shown)
VH: QVQLVESGGGVVQPGRSLRLSCAASGFTFSSYAMHWVRQAPGKGLEWVAVISYDGSNKYYADSVKGRFTISRDNSKNTLYLQMNSLRAEDTAVYYCARETFPHYYYYYMDVWGRGTLVTVSS
VL: SYVLTQPPSVSVAPGQTARITCEGDDTDIGTVNWYQQKPGQAPVLVISEDGYRPSGIPERFSGSNSGNTATLTISRVEAGDEADYYCQFWDVDSDHPVFGGGTQLTVLG
On to B1, for which, in assay [1], the “Chemotaxis IC50 (nM), 0.2 nM huRANTES; L1.2-hCCR5 cells; IgG1 format” value was determined as 0.49 nM and the “Chemotaxis IC50 (nM), 1 nM huRANTES; L1.2-hCCR5 cells; IgG1 format” value (from here on “Chemotaxis IC50 (nM), 1 nM huRANTES”) amounted to 2.1 nM. Besides, the “Chemotaxis IC50 (nM), native huRANTES from THP1 cells; L1.2-hCCR5 cells; IgG1 format” value in assay [2] was determined as 1.6 nM.

B2: H6 scFv (scFv)
chain: QVQLVQSGAEVKRPGASVKVSCKVSGNTLSKQSMHWVRQAPGKGFEWMGSSNPEDDETLYAKKFQGRVTMTEDTSTDTAYLELSSLRSEDTAVYYCATDSQGFYYYYGMDVWGQGTLVTVSSQSVLTQPPSVSGAPGQRVTISCTGSSSNIGADYDVHWYQQLPGTVPKLLIYDNINRPSGVPDRFSGSKSGTSASLAITGLQAEDEADYYCQSYDSSLSGVLFGGGTKVTVL
Consider B2, for which, in assay [3], the “Chemotaxis IC50 (nM); L1.2 cells expressing hCCR5, 1 nM huRANTES; scFv format” value (from here on “Chemotaxis IC50 (nM) … scFv format”) came out at 25 nM.

B3: E10 scFv (scFv)
chain: QVQLVESGGGVVQPGRSLRLSCAASGFTFSSYAMHWVRQAPGKGLEWVAVISYDGSNKYYADSVKGRFSISRDNSKNTLYLQMNSLRAEDTAVYYCARETFPHYYYYYMDVWGKGTMVTVSSSYVLTQPPSVSVAPGQTARISCGGGNFDDEGVHWYQQTPGQAPVLVVYDDTGRPSGIPERFSGSSSGNTATLTISRVEAGDEADYYCQAWDSSNDHPVFGGGTQLTVL
On to B3, for which the “Chemotaxis IC50 (nM) … scFv format” value in assay [3] came to 9.4 nM.

B4: E7 antibody, IgG1 format (antibody, V domains shown)
VH: QVQLVQSGAEVKKPGSSVKVSCKISGGISDNYALSWVRQAPGQGLEWMGAVIPLVETTSYAQRFQGRLTITADDSLNTLYMELGSLRSDDTAMYYCAREQVAVGPGPTSNRGPDGLDVWGRGTMVTVSS
VL: QSVLTQPPSVSGAPGQRVTISCTGSSSNIGDGYDVHWYQQLPGTAPKLLIYGNSNRPSGVPDRFSGSTSGTSASLAIRGLQSEDEADYYCGTWDDILNGWVFGGGTKLTVL
For the molecule B4, the “Chemotaxis IC50 (nM), 1 nM huRANTES” value in assay [1] came to 2.2 nM. For the same molecule, the binding result in assay [4] was “no binding”.

B5: G2 scFv (scFv)
chain: QVQLVQSGAEVKKPGASVKVSCRASGYALTELSIHWVRQAPGKGLEWMGGFDPEDGETIYAQNFQGRVIMTEDTSTDTAYMELSSLKSEDTAVYYCATDLTGSRDSWGQGTLVTVSSQSVLTQPASVSGSPGQSITISCTGSRSDIGYYNYVSWYQQHPGKVPKLIIYDVTERPSGVSDRFSGSKSANTASLTISGLQAEDEADYYCSSFSSGDTFVVFGGGTKLTVL
Regarding B5, in assay [3], the “Chemotaxis IC50 (nM) … scFv format” value was found to be 62 nM.

B6: 2D1 scFv (scFv)
chain: QVQLVQSGAEVKKPGASVKVSCKVSGYTLNDFAMHWVRQAPGKGLEWMGGYVPEDGDTIYAQKFQGRVTMTEDTSTDTAYMELSSLRSEDTAVYYCATDPLYSGSLSYWGQGTTVTVSSSYVLTQPPSVSVAPGQTARITCGGNNIESKSVHWYQQKPGQAPVLVVYDDSDRPSGIPERFSGSNSGNTATLTISRVEAGDEADYYCQVWDSNTDHWVFGGGTKVTVL
With B6, the “Chemotaxis IC50 (nM) … scFv format” value in assay [3] was determined as 1.3 nM.

B7: CG11 antibody, IgG1 format (antibody, V domains shown)
VH: QVQLVQSGTEVKKPGATVNVSCKISGHLFTDYYIHWVQQAPGKGLEWVGLIDPKDGEIQYAEKFQARVTITADTSTDTVYMELNSLRSEDTAVYYCATEVLSGIRVFPFDPWGQGTLVTVSS
VL: QSVLTQPPSVSGAPGQRVTISCTGSSSNIGAGYDVYWYQQFPGKAPKLLIYDTNNRPPGVPDRFSGSKSGTSASLAISGLQTEDEADYYCQSYDIALSNSNVVFGGGTKLTVL
In the case of B7, in assay [1], the “Calcium Flux IC50 (nM), 10 nM rhuRANTES; L1.2-hCCR5 cells; IgG1 format” value (“Calcium Flux IC50 (nM), 10 nM rhuRANTES” for short) amounted to 9.5 nM and the “Chemotaxis IC50 (nM), 1 nM huRANTES” value was determined as 4.8 nM. Moreover, the binding result in assay [4] is on record as “no binding”.

B8: 1D9 antibody, IgG1 format (antibody, V domains shown)
VH: QVQLVQSGAEVKKPGASVKVSCKVSGYTLTEFAMHWVRQAPGKGLEWMGGFVPEDGETIYAQKFQGRVTMTEDTSTDTAYMELSSLRSEDTAVYYCATDPLYTPGLEPWGQGTTVTVSS
VL: SYVLTQPPSVSVAPGQTARITCGGNNIESKSVHWYQQKPGQAPVLVVYDDSDRPSGIPERFSGSNSGNTATLTISRVEAGDEADYYCQVWDSNTDHWVFGGGTKLTVLG
As to B8, in assay [1], the “Chemotaxis IC50 (nM), 0.2 nM huRANTES; L1.2-hCCR5 cells; IgG1 format” value was determined as 0.038 nM and the “Chemotaxis IC50 (nM), 1 nM huRANTES” value was found to be 0.35 nM. Moreover, in assay [2], the “Chemotaxis IC50 (nM), native huRANTES from THP1 cells; L1.2-hCCR5 cells; IgG1 format” value turned out to be 0.033 nM.

B9: D1 antibody, IgG1 format (antibody, V domains shown)
VH: EVQLVQSGPEVKKPGATVKISCNVSAETFTDYYIHWVKQAPGRGLEWMGLVDSEEDGETLFAETFRGRVALTADRSTNTAYMELRSLRHDDTAVYYCAAEYGEYGFFQSWGQGTLVTVSS
VL: QSVLTQPPSVSGAPGQRVTISCTGSSSNIGADYDVNWYQQLPGTSPKLLIYGDINRPSGVPDRFSASKSGTSASLAITGLQAEDEADYYCQSFDNSLSGSVIFGGGTKLTVL
For B9, the “Chemotaxis IC50 (nM), 1 nM huRANTES” value in assay [1] was 7 nM. Also, in assay [4], the binding result is “no binding”.

B10: A9 antibody, IgG1 format (antibody, V domains shown)
VH: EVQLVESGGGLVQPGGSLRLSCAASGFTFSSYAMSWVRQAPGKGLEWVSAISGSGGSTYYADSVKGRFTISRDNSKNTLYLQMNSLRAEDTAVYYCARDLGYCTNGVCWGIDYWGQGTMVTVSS
VL: NFMLTQPHSVSESPGKTVTISCTRSSGSIADNYVQWYQQRPGSAPTTIIYDDDQRLSGVPDRFSGSIDTSSNSASLSISGLRTEDEADYYCQSYDDSNDVFGGGTKLTVL
B10: in assay [1], the “Calcium Flux IC50 (nM), 10 nM rhuRANTES” value was 3.3 nM and the “Chemotaxis IC50 (nM), 1 nM huRANTES” value is 1 nM. The binding result in assay [4] was “no binding”.

B11: E6 scFv (scFv)
chain: QVQLVQSGAEVEKPGASVKVSCRVSGYPLTEIAIHWVRQAPGKGLEWMGSFEPEDAEAIYAQRFQGRVTMTEETSANTAYMELSSLRSEDTAVYFCATDPYYASSGSNYMEVWGRGTLVTVSSNFMLTQPHSVSESPGKTVTISCTGSGGSISSNYVQWYRQRPGSAPSTVIYEDDQRPSGVPDRISGSIDSSSNSASLTISGLTTEDEADYYCHSYDGNNRWVFGGGTKLTVL
Turning to B11, in assay [3], the “Chemotaxis IC50 (nM) … scFv format” value came out at 72 nM.

B12: H11 antibody, IgG1 format (antibody, V domains shown)
VH: QVQLVQSGAEVKKPGSSVKVSCKASGGISDNYALSWVRQAPGQGLEWMGGFIPLVDTTNYAQRFQGRLTITADDSMSTVYMELRSLRSDDTAMYYCAREQVAVGPGPTSDRGPDGLDVWGQGTMVTVSS
VL: QSVLTQPSSVSGAPGHRVTISCTGSNSNLGADYDVHWYQQLPGSAPKLLIYDNNIRPSGVPARFSGSKSGTSASLAITGLQAEDEADYYCQSYDTGLTSSDVIFGGGTKLTVL
Regarding B12, the “Chemotaxis IC50 (nM), 1 nM huRANTES” value in assay [1] was 1.3 nM. The binding result in assay [4] is listed as “no binding”.

B13: H6 antibody, IgG1 format (antibody, V domains shown)
VH: QVQLVQSGAEVKRPGASVKVSCKVSGNTLSKQSMHWVRQAPGKGFEWMGSSNPEDDETLYAKKFQGRVTMTEDTSTDTAYLELSSLRSEDTAVYYCATDSQGFYYYYGMDVWGQGTLVTVSS
VL: QSVLTQPPSVSGAPGQRVTISCTGSSSNIGADYDVHWYQQLPGTVPKLLIYDNINRPSGVPDRFSGSKSGTSASLAITGLQAEDEADYYCQSYDSSLSGVLFGGGTKVTVL
With B13, in assay [1], the “Calcium Flux IC50 (nM), 10 nM rhuRANTES” value worked out at 9 nM and the “Chemotaxis IC50 (nM), 1 nM huRANTES” value was 8.7 nM. The binding result in assay [4] is reported as “no binding”.

(Values after patent publication US20120201826A1 (NOV IMMUNE S A, published 2012).)
